The target in test [1] is Biotinylated human BSSL (human) (UniProt P19835). Briefly: flow cytometry displacement assay; 1.5 ug antibody, 1 ug b-hBSSL.
The target is the same in test [2]. Briefly: flow cytometry displacement assay; 3.0 ug antibody, 1 ug b-hBSSL. On the technique in general: In flow cytometry, cells or beads pass a laser one at a time.
Test [3] shares this target. The test is described as follows: SPR single cycle kinetics, scFv captured by anti-FLAG M2.
The target is the same in test [4]. The test is described as follows: ELISA, b-hBSSL coated through streptavidin at 1 µg/ml, detection HRP anti-FLAG M2, A450.

Data on two molecules can be found in patent US20220267469A1.

Chain of Biotinylated human BSSL (human) (P19835 other isoform, or with tags, fused parts or gaps): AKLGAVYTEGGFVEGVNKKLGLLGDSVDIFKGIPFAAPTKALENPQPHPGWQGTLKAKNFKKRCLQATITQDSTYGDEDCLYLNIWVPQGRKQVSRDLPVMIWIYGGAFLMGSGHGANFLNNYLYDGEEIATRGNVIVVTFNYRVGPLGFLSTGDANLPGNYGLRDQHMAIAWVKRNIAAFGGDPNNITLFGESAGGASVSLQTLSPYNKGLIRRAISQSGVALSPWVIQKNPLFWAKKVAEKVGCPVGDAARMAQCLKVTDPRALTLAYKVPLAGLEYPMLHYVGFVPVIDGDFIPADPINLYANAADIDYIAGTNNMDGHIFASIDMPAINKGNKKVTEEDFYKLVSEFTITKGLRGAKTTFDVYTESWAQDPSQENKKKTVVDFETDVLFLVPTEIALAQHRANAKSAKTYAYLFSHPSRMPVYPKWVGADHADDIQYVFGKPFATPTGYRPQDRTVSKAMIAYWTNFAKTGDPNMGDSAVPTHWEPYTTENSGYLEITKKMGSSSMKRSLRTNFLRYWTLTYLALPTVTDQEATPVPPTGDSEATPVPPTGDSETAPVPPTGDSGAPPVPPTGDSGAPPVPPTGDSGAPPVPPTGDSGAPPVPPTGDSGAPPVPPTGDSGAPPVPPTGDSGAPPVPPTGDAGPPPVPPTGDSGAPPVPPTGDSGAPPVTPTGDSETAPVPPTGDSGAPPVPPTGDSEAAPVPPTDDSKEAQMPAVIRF

B1: S-SL048-75 hIgG4 S228P (antibody, V domains shown)
VH: QVQLVQSGAEVKKPGASVKVSCKASGYTFTSYNMHWVRQAPGQGLEWMGVIYPGGGYTSYAQKFKGRVTMTRDTSTSTVYMELSSLRSEDTAVYYCARDYYGSSPLGYWGQGTLVTVSS
VL: DIQMTQSPSSLSASVGDRVTITCRASQSISYLNWYQQKPGKAPKLLIYATSNLQSGVPSRFSGSGSGTDFTLTISSLQPEDFATYYCHQRSSSPTFGQGTKLEIK
Turning to B1, the percentage reduction of b-hBSSL binding to CD14+ monocytes in test [1] was 3%; in test [2] it was 0%.

B2: AS20 scFv (scFv, V domains shown, not shown: small tags and cut ends)
VH: QVQLQQPGAELVKPGASVKMSCKASGYTFTSYNMHWVKQTPGQGLEWIGVIYPGNGDTSYNQKFKGKATLTADKSSSTAYMQLSSLTSEDSAVYYCARDYYGSSPLGYWGQGTTLTVSS
VL: QIVLTQSPAVMSASPGEKVTMTCSASSSISYMHWYQQKPGTSPKRWIYDTSKLASGVPARFSGSGSGTSYSLTISSMEAEDAATYYCHQRSSYPTFGGGTKLEIK
modifications: Gly-Ser linker; C-terminal 3xFLAG and His6 tags
With B2, in test [3], the Kd (commonly a measure of binding affinity in units of concentration) was 0.8 nM; the koff (in general, the rate constant with which the complex falls apart) amounted to 4.4e-05 s⁻¹; the kon (in general, a measure of how fast the partners come together) turned out to be 55000 M⁻¹ s⁻¹. Also, the EC50 (read off the curve) (commonly the midpoint of the concentration-response curve) in test [4] came out at 0.02 µg/mL.
